Laboratory results reported in patent US20180346564A1 (TEIJIN PHARMA, published 2018).
[ ]: non-standard residue; d: D form. pT = C[C@@H](OP(=O)(O)O)[C@H](N)C(=O)O; pS = N[C@@H](COP(=O)(O)O)C(=O)O

What was measured:
[1] = biological target: T1, His-tagged non-phosphorylated tau protein 4R0N (human, UniProt P10636 2-758); assay: SPR Biacore T200, antigen immobilized
T1 construct: Produced by Escherichia coli; negative control in SPR; also called ATGen Cat. No. ATGP0795
Method: The binding affinities of the hyperphosphorylated tau protein 4R2N (hpTau), non-phosphorylated tau protein 4R0N, monophosphorylated tau peptide 1×P, triphosphorylated tau peptide 3×P, and non-phosphorylated tau peptide Non P with each antibody were measured with an SPR system Biacore T200 (GE Healthcare Japan), in accordance with the instruction manual for evaluation attached to the system.
The His-tagged hpTau or Tau proteins were each immobilized on a sensor chip using an HBS-N buffer (code No. BR-1003-69) as the immobilization reaction solution and allowing a nickel chloride solution to react with the NTA sensor chip for bonding Ni to NTA. Subsequently, the sensor chip was activated with a mixed solution of N-ethyl-N′-(3-dimethylaminopropyl)-carbodiimide hydrochloride (1-ethyl-3-(3-dimethylaminopropyl)carbodiimide hydrochloride: EDC) and N-hydroxysuccinimide (NHS). A solution of each of the His-tagged proteins, adjusted to a concentration of 100 to 500 ng/mL with a 4-(2-hydroxyethyl)-1-piperazineethanesulfonic acid (HEPES) buffer (0.01 M HEPES, 150 mM KCl, 2 mM DTT, 1 mM EDTA, pH 7.2), was applied to the sensor chip, whereby the protein was immobilized on the sensor chip through covalent bonds with the Ni-NTA. The remaining active NHS was blocked with ethanolamine, and Ni ions were removed with an EDTA solution (Ni-affinity amine coupling: see International Publication No. WO2005/022156). The antigen peptides (1×P, 3×P, and Non P) were each immobilized on a sensor chip by activating the NTA sensor chip with a mixed solution of N-ethyl-N′-(3-dimethylaminopropyl)-carbodiimide (EDC) hydrochloride and N-hydroxysuccinimide (NHS), and then applying a solution of the antigen peptide diluted with a 10 mM sodium acetate buffer (pH: 4 to 4.5) to 1 to 10 μM to the sensor chip, whereby the peptide was covalently bound to the sensor chip. The remaining active NHS was blocked with ethanolamine. Thus, sensor chips immobilized respectively with the proteins and peptides mentioned above were produced.
A CAPS buffer (pH 10.5) was applied to these sensor chips at 37° C. to stabilize the protein- or peptide-immobilized surfaces of the sensor chips.

[2] = biological target: T2, Peptide No. 6, pT231, H-KVAVVR(pT)PPKSPS-OH (human); assay: ELISA, coated peptide
T2 peptide: H-KVAVVR[pT]PPKSPS-OH
How it was run: (§1)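 Peptides, or their bovine serum albumin or keyhole limpet hemocyanin conjugates, at 1 μg/mL in cold PBS were coated at 50 μL/well overnight at 4 °C, then blocked with 3% BSA-PBS overnight at 4 °C. Purified antibody at 150 ng/mL in 3% BSA-PBS was bound for 90 minutes at room temperature, followed by alkaline phosphatase-labelled goat anti-human IgG (H+L) (2000-fold, 60 minutes). Binding was read as absorbance at 405 nm (reference 550 nm) after 40 minutes of pNPP development.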

[3] = biological target: T3, Peptide No. 2, pS199, H-SGYS(pS)PGSPGC-OH (human, SMILES N[C@@H](CO)C(=O)NCC(=O)N[C@@H](Cc1ccc(O)cc1)C(=O)N[C@@H](CO)C(=O)N[C@@H](COP(=O)(O)O)C(=O)N1CCC[C@H]1C(=O)NCC(=O)N[C@@H](CO)C(=O)N1CCC[C@H]1C(=O)NCC(=O)N[C@@H](CS)C(=O)O); assay: ELISA, coated peptide
T3 peptide: H-SGYS[pS]PGSPGC-OH
How it was run: as §1

[4] = biological target: T4, Peptide No. 8, pS412, H-NV(pS)STGSC-OH (human, SMILES CC(C)[C@H](NC(=O)[C@@H](N)CC(N)=O)C(=O)N[C@@H](COP(=O)(O)O)C(=O)N[C@@H](CO)C(=O)N[C@H](C(=O)NCC(=O)N[C@@H](CO)C(=O)N[C@@H](CS)C(=O)O)[C@@H](C)O); assay: ELISA, coated peptide
T4 peptide: H-NV[pS]STGSC-OH
How it was run: as §1

[5] = biological target: T5, Peptide No. 5, pT217, H-GC-GSRSRTPSLP(pT)PPTREPKKVAVV-OH (human, phosphothreonine (pT) at peptide position 13 (tau Thr217)); assay: ELISA, coated peptide
T5 peptide: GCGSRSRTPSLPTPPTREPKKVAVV
How it was run: as §1

[6] = biological target: T6, Peptide No. 4, pT212/pS214, H-GCGSPGTPGSRSR(pT)P(pS)LPTPPTREPK-OH (human, phosphothreonine (pT) at peptide position 14 (tau Thr212); phosphoserine (pS) at peptide position 16 (tau Ser214)); assay: ELISA, coated peptide
T6 peptide: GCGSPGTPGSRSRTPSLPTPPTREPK
How it was run: as §1

[7] = biological target: T7, Peptide No. 7, pS396/pS400/pS404, H-GC-RENAKAKTDHGAEIVYK(pS)PVV(pS)GDT(pS)PRHL-OH (human, phosphoserine (pS) at peptide positions 20, 24 and 28 (tau Ser396, Ser400, Ser404)); assay: ELISA, coated peptide
T7 peptide: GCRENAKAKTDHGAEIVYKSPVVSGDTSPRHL
How it was run: as §1

[8] = biological target: T8, Peptide No. 3, pS202, H-SSPG(pS)PGTPC-OH (human, SMILES C[C@@H](O)[C@H](NC(=O)CNC(=O)[C@@H]1CCCN1C(=O)[C@H](COP(=O)(O)O)NC(=O)CNC(=O)[C@@H]1CCCN1C(=O)[C@H](CO)NC(=O)[C@@H](N)CO)C(=O)N1CCC[C@H]1C(=O)N[C@@H](CS)C(=O)O); assay: ELISA, coated peptide
T8 peptide: H-SSPG[pS]PGTPC-OH
How it was run: as §1

[9] = biological target: T9, Peptide No. 1, pS46, H-GLKE(pS)PLQT-OH (human, SMILES CC(C)C[C@H](NC(=O)CN)C(=O)N[C@@H](CCCCN)C(=O)N[C@@H](CCC(=O)O)C(=O)N[C@@H](COP(=O)(O)O)C(=O)N1CCC[C@H]1C(=O)N[C@@H](CC(C)C)C(=O)N[C@@H](CCC(N)=O)C(=O)N[C@H](C(=O)O)[C@@H](C)O); assay: ELISA, coated peptide
T9 peptide: H-GLKE[pS]PLQT-OH
How it was run: as §1

T1 sequence (P10636 other isoform, or with tags, fused parts or gaps limits assumed): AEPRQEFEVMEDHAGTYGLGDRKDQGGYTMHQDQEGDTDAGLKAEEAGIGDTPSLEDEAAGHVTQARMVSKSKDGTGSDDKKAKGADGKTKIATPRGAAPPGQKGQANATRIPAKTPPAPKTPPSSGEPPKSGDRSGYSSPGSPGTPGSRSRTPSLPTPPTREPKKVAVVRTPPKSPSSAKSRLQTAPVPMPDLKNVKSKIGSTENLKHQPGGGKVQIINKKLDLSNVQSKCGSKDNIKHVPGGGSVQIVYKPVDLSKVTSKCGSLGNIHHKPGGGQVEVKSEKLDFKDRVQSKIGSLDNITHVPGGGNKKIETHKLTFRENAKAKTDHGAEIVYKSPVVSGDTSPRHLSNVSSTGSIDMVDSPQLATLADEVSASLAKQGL

B1: chimeric antibody Ta1505 (antibody, human IgG1, kappa, V domains shown)
VH: EVQLVESGGGLVQPKGSLKLSCAASGFAFNSFALNWVRQAPGKSLEWVVHIRSKTNNYATFYADSVKDRFTVSRDDSQSMVYLQMNNLKTEDTGIYYCVRRGPRDSWFGYWGQGTLVTVSA
VL: DILMTQTPLSLPVSLGDQASISCRSSQNIVHSNGNTYLEWYLQKPGQSPKVLIYTVSNRFSGVPDRFSGSGSGTDFTLKISRVEAEDLGVYYCFQGSHLPLTFGGGTKLELKR
notes: Mouse Ta1505 variable regions with human IgG1(kappa) constant regions. chim; also called the chimeric antibody; Chimera
- binding result [1]: no binding (tested: 0.2 to 1 nM)
- binding result [2]: no binding (tested: OD value <0.5; antibody 150 ng/mL)
- binding result [3]: no binding (tested: OD value <0.5; antibody 150 ng/mL)
- binding result [4]: no binding (tested: OD value <0.5; antibody 150 ng/mL)
- binding result [5]: no binding (tested: OD value <0.5; antibody 150 ng/mL)
- binding result [6]: no binding (tested: OD value <0.5; antibody 150 ng/mL)
- binding result [7]: no binding (tested: OD value <0.5; antibody 150 ng/mL)
- binding result [8]: no binding (tested: OD value <0.5; antibody 150 ng/mL)
- binding result [9]: no binding (tested: OD value <0.5; antibody 150 ng/mL)

B2: humanized antibody L48H11 (antibody, human IgG1, kappa, V domains shown)
VH: EVQLVESGGGLVQPGGSLRLSCAASGFTFSSFALNWVRQAPGKGLEWVGHIRSKTNNYATFYAASVKDRFTVSRDDSQNTAYLQMNSLKTEDTATYYCVRRGPRDSWFGYWGQGTLVTVSS
VL: DIVMTQSPLSLPVTLGDPASISCRSSQNIVHSNGNTYLEWYQQKPGQSPQLLIYTVSNRFSGVPDRFSGSGSGTDFTLKISRVEAEDLGVYYCFQGSHLPLTFGGGTKVEIKR
notes: VL48/VH11, human IgG1/kappa
- binding result [1]: no binding (tested: 0.2 to 1 nM)
- binding result [2]: no binding (tested: OD value <0.5; antibody 150 ng/mL)
- binding result [3]: no binding (tested: OD value <0.5; antibody 150 ng/mL)
- binding result [4]: no binding (tested: OD value <0.5; antibody 150 ng/mL)
- binding result [5]: no binding (tested: OD value <0.5; antibody 150 ng/mL)
- binding result [6]: no binding (tested: OD value <0.5; antibody 150 ng/mL)
- binding result [7]: no binding (tested: OD value <0.5; antibody 150 ng/mL)
- binding result [8]: no binding (tested: OD value <0.5; antibody 150 ng/mL)
- binding result [9]: no binding (tested: OD value <0.5; antibody 150 ng/mL)

B3: humanized antibody L47H64 (antibody, human IgG1, kappa, V domains shown)
VH: EVQLVESGGGLVQPGGSLRLSCAASGFTFNSFALNWVRQAPGKGLEWVVHIRSKTNNYATFYAASVKDRFTVSRDDSQNTAYLQMNSLKTEDTATYYCVRRGPRDSWFGYWGQGTLVTVSS
VL: DIVMTQSPLSLPVTLGDPASISCRSSQSIVHSNGNTYLEWYQQKPGQSPQRLIYTVSNRFSGVPDRFSGSGSGTDFTLKISRVEAEDLGVYYCFQGSHLPLTFGGGTKVEIKR
notes: VL47/VH64, human IgG1/kappa
- binding result [2]: no binding (tested: OD value <0.5; antibody 150 ng/mL)
- binding result [3]: no binding (tested: OD value <0.5; antibody 150 ng/mL)
- binding result [4]: no binding (tested: OD value <0.5; antibody 150 ng/mL)
- binding result [5]: no binding (tested: OD value <0.5; antibody 150 ng/mL)
- binding result [6]: no binding (tested: OD value <0.5; antibody 150 ng/mL)
- binding result [7]: no binding (tested: OD value <0.5; antibody 150 ng/mL)
- binding result [8]: no binding (tested: OD value <0.5; antibody 150 ng/mL)
- binding result [9]: no binding (tested: OD value <0.5; antibody 150 ng/mL)

B4: humanized antibody L15H11 (antibody, human IgG1, kappa, V domains shown)
VH: EVQLVESGGGLVQPGGSLRLSCAASGFTFSSFALNWVRQAPGKGLEWVGHIRSKTNNYATFYAASVKDRFTVSRDDSQNTAYLQMNSLKTEDTATYYCVRRGPRDSWFGYWGQGTLVTVSS
VL: DIVMTQSPLSLPVTLGEPASISCRSSQSIVHSNGNTYLEWYQQKPGQSPRLLIYTVSNRFSGVPDRFSGSGSGTDFTLKISRVEAEDLGVYYCFQGSHLPLTFGGGTKVEIKR
notes: VL15/VH11, human IgG1/kappa
- binding result [1]: no binding (tested: 0.2 to 1 nM)
- binding result [2]: no binding (tested: OD value <0.5; antibody 150 ng/mL)
- binding result [3]: no binding (tested: OD value <0.5; antibody 150 ng/mL)
- binding result [4]: no binding (tested: OD value <0.5; antibody 150 ng/mL)
- binding result [5]: no binding (tested: OD value <0.5; antibody 150 ng/mL)
- binding result [6]: no binding (tested: OD value <0.5; antibody 150 ng/mL)
- binding result [7]: no binding (tested: OD value <0.5; antibody 150 ng/mL)
- binding result [8]: no binding (tested: OD value <0.5; antibody 150 ng/mL)
- binding result [9]: no binding (tested: OD value <0.5; antibody 150 ng/mL)

B5: humanized antibody L36H11 (antibody, human IgG1, kappa, V domains shown)
VH: EVQLVESGGGLVQPGGSLRLSCAASGFTFSSFALNWVRQAPGKGLEWVGHIRSKTNNYATFYAASVKDRFTVSRDDSQNTAYLQMNSLKTEDTATYYCVRRGPRDSWFGYWGQGTLVTVSS
VL: DIVMTQSPLSLPVTLGDPASISCRSSQSIVHSNGNTYLEWYQQKPGQSPQLLIYTVSNRFSGVPDRFSGSGSGTDFTLKISRVEAEDLGVYYCFQGSHLPLTFGGGTKVEIKR
notes: VL36/VH11, human IgG1/kappa
- binding result [1]: no binding (tested: 0.2 to 1 nM)
- binding result [2]: no binding (tested: OD value <0.5; antibody 150 ng/mL)
- binding result [3]: no binding (tested: OD value <0.5; antibody 150 ng/mL)
- binding result [4]: no binding (tested: OD value <0.5; antibody 150 ng/mL)
- binding result [5]: no binding (tested: OD value <0.5; antibody 150 ng/mL)
- binding result [6]: no binding (tested: OD value <0.5; antibody 150 ng/mL)
- binding result [7]: no binding (tested: OD value <0.5; antibody 150 ng/mL)
- binding result [8]: no binding (tested: OD value <0.5; antibody 150 ng/mL)
- binding result [9]: no binding (tested: OD value <0.5; antibody 150 ng/mL)
